This is an account of results in IntAct's records for PubMed 23340509.

B1: Protein Tob2 (Homo sapiens), Q14106 (parent)
chain: MQLEIKVALNFIISYLYNKLPRRRADLFGEELERLLKKKYEGHWYPEKPLKGSGFRCVHIGEMVDPVVELAAKRSGLAVEDVRANVPEELSVWIDPFEVSYQIGEKGAVKVLYLDDSEGCGAPELDKEIKSSFNPDAQVFVPIGSQDSSLSNSPSPSFGQSPSPTFIPRSAQPITFTTASFAATKFGSTKMKKGGGAASGGGVASSGAGGQQPPQQPRMARSPTNSLLKHKSLSLSMHSLNFITANPAPQSQLSPNAKEFVYNGGGSPSLFFDAADGQGSGTPGPFGGSGAGTCNSSSFDMAQVFGGGANSLFLEKTPFVEGLSYNLNTMQYPSQQFQPVVLAN

In this assay the parent is B1. To be noted: with pabp1_human PABPC1, P11940.
Sequence of pabp1_human PABPC1, P11940 (P11940 whole entry): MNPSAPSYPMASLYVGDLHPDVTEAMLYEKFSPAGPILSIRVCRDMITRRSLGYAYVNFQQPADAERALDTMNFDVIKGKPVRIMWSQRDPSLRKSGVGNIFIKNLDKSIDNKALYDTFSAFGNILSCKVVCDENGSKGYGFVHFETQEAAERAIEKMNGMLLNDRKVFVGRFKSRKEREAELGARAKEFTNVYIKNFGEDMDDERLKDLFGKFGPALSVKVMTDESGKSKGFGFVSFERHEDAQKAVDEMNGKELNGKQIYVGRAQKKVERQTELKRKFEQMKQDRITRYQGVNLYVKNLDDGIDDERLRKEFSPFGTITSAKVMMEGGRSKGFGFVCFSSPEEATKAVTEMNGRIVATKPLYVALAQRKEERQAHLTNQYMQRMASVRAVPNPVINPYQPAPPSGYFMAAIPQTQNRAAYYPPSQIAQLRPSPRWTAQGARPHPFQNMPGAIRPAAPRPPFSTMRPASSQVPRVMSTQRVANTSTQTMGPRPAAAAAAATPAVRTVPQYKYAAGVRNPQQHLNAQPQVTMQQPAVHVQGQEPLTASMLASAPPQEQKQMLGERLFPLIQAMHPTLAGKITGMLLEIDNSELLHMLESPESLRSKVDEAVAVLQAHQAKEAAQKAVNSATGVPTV
In the case of F140A;F260A, the “effect of a mutation on the interaction” value is reported as “disrupting interaction”.
